Drawing on paper PMC5435084, this text covers Kd for one substance.

The experiment has as its target Robo1-CC3 (UniProt Q9Y6N7). Put plainly: SPR. For orientation: In SPR one partner is held on a chip, and binding of the other changes the refractive index at the surface.

Chain of Robo1-CC3 (Q9Y6N7 26-1651): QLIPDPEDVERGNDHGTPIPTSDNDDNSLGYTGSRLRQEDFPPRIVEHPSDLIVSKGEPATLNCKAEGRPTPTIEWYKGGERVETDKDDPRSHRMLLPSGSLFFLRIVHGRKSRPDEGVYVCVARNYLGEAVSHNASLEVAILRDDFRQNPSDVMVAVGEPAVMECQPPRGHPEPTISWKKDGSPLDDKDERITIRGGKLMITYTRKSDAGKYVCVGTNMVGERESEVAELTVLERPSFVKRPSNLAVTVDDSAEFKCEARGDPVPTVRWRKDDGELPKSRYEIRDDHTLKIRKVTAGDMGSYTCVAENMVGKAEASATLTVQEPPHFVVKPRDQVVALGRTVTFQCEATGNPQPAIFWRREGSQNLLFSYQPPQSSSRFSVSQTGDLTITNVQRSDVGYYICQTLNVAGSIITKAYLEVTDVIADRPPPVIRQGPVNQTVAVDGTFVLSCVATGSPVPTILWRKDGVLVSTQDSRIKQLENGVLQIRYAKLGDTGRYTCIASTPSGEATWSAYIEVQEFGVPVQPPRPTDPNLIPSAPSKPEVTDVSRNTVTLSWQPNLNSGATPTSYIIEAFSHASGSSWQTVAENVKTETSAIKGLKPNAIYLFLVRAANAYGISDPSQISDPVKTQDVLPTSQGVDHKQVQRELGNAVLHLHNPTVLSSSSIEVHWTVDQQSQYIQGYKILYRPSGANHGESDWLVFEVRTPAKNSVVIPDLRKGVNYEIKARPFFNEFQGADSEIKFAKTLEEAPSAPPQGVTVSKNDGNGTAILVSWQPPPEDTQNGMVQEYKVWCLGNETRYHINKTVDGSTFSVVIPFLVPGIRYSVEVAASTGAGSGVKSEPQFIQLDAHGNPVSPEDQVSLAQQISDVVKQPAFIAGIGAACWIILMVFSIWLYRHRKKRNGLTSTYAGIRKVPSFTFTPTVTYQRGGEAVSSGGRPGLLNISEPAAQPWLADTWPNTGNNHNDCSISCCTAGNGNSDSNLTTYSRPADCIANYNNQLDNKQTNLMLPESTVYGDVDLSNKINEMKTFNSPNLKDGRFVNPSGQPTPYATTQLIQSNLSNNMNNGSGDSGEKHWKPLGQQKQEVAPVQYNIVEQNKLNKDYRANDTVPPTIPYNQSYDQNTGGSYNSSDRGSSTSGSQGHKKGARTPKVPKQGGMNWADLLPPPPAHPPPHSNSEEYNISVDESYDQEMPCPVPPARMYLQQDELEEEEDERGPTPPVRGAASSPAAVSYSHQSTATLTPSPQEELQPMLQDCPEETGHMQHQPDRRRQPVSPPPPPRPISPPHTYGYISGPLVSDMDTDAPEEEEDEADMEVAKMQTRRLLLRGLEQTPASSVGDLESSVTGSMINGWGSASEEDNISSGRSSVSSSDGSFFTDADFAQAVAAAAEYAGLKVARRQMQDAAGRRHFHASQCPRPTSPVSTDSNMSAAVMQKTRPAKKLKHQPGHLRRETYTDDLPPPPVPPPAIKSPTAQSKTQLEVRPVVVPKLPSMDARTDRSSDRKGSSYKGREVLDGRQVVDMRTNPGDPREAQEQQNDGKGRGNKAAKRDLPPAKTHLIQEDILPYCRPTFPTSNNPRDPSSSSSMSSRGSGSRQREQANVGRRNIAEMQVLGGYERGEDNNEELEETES

The Kd is the equilibrium constant for the complex coming apart. “SRGAP2A:F-BARC hetero-dimer (from UniProt O75044 1-799; P0DJJ0 1-355) (complex)”: the Kd is 5.6 µM.
